From PMC4909201 (2016) come the findings set out here.

Non-standard residues stand in square brackets, D forms with d. No end group written: not given here. *: point of attachment. Biotin = O=C1N[C@H]2[C@H](CS[C@H]2CCCCC(=O)*)N1; pY = N[C@@H](Cc1ccc(OP(=O)(O)O)cc1)C(=O)O

The target of the assay is thrombin (Homo sapiens, UniProt P00734). In words: SPR. For orientation: Surface plasmon resonance follows binding to a sensor surface in real time, without labels.

The term Kd denotes the free concentration of one partner at which half of the binding sites on the other are occupied at equilibrium, for simple one-to-one binding. Take Biotin-DEGDTDL[pY]D[pY][pY]PEEDTEG [GpIbα269-286ppp]: binding was characterised by a dissociation constant (Kd) of 229 nM.
